The record followed here is the supplement of paper PMC10724198.

± gives the standard deviation of the averaged measurements.
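Also: PSI is a weighted mean of sequencing reads over stability bins, variants kept only with over 10 reads, mCherry proximal and sfGFP distal, peptide attached via GGGS linker.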

This data set has as its system Saccharomyces cerevisiae. As to the kind of experiment: protein stability index of tFT-peptide fusion (C-terminal peptide) (PSI (0-1 scale)); higher = more stable (slower turnover). The note with it: genetic background: wild type; temperature: 30 C.
For PTSDSPSLALPC, the protein stability index is 0.71 ± 0.023.

PTSPPPPPASPS had a protein stability index of 0.836 ± 0.18. To PTTAPPIPLPSP belongs 0.72 ± 0.035; to PTTLCLSDRPQP, 0.721 ± 0.0081. The sequence PTTNHLSNRHNI showed a protein stability index of 0.685 ± 0.085. In the case of PTTRSAPPPCIA it was 0.676 ± 0.03; in that of PTTTLYNPSPPN, 0.742 ± 0.043; in that of PVEGSTPPPGTT, 0.614 ± 0.032. In the case of PVIGLSMEKARG it was 0.739 ± 0.1.

As to PVLPFPSPPAAS, the protein stability index stood at 0.682 ± 0.078. In the case of PVLPPCLLPTPV it was 0.509 ± 0.093; in that of PVLPRPNTQSRS, 0.694 ± 0.027.

PVLSRLHSEVFL registered a protein stability index of 0.73 ± 0.081. PVPSPFMHRAAP: the protein stability index was 0.702 ± 0.015. In the case of PVPSRAQTRSRA it was 0.65 ± 0.073.

Consider PVPVLGPESSVH, for which the protein stability index is 0.67 ± 0.023. To PVQNVGAEVRPA belongs 0.683 ± 0.0094. PVSCTLTLPPPH displayed a protein stability index of 0.65 ± 0.0036. For the sequence PVSSPPRPAPSP, the protein stability index came out at 0.677 ± 0.025. With PVVDVRFSFRCL, the protein stability index is 0.644 ± 0.038.

With PVWLLHIRPPIP, the protein stability index came out at 0.681 ± 0.058. For PVYAYYVPCAPR, the protein stability index came to 0.645 ± 0.091. To PWANRVCFLHMK belongs 0.678 ± 0.037; to PWEVEAKNGRDR, 0.717 ± 0.032; to PWGGVLGWGLVG, 0.608 ± 0.016.

The sequence PWGSPLMACRSC showed a protein stability index of 0.694 ± 0.02. To PWTAGQGWATIP belongs 0.688 ± 0.04; to PWTAHVWSMVLG, 0.552 ± 0.033; to PWWGCTLGGGWG, 0.737 ± 0.063. In the case of PYEPTIALPLLL it was 0.683 ± 0.058. In the case of PYFFSPIFTRTP it was 0.712 ± 0.027; in that of PYFHRRMSLESF, 0.703 ± 0.013. Turning to PYGFNPSANGSS, the protein stability index came to 0.696 ± 0.068. In the case of PYHLFLSFSLSR it was 0.725 ± 0.011; in that of PYPPPPALPSSF, 0.667 ± 0.032. To PYRLPRSLLFFP belongs 0.6688 ± 0.0045; to PYSHFVFGLCEL, 0.75 ± 0.096. In the case of PYTPPTSSRDRS it was 0.661 ± 0.019; in that of QADAPPGDTNTL, 0.727 ± 0.041. The sequence QCASPRLSLGSP yielded a protein stability index of 0.703 ± 0.03. In the case of QCCPPEQLSNCS it was 0.681 ± 0.011.

The sequence QCGYGKLSGGSQ had a protein stability index of 0.672 ± 0.034. The sequence QCNYCVQNLSSR displayed a protein stability index of 0.695 ± 0.019. For the sequence QDSTNTPHTCRS, the protein stability index came out at 0.695 ± 0.06. To QEIRKEILLIKS belongs 0.6 ± 0.098; to QERRDQGRKGQD, 0.673 ± 0.011. In the case of QESSDSRHATIR it was 0.624 ± 0.044; in that of QFIGVGKVQRFG, 0.59 ± 0.014; in that of QFLGVGCLRGKR, 0.692 ± 0.037. To QFNVLPGQVGLV belongs 0.635 ± 0.027.

Consider QFTLLEFVRSMG, for which the protein stability index was found to be 0.613 ± 0.032. In the case of QGGGDREVRVSE it was 0.653 ± 0.058; in that of QGKRRREDGIGG, 0.711 ± 0.072; in that of QGQAEREAERRS, 0.6732 ± 0.0059. As to QGWDGSRRRPGL, the protein stability index was 0.706 ± 0.031. In the case of QGYWVKAVCASH it was 0.624 ± 0.023. QIKGNNLNIDKG displayed a protein stability index of 0.6721 ± 0.0031.

Sequence QIQRLGGGGHCG gave a protein stability index of 0.762 ± 0.1. In turn, QISLPDASLPPS returned a protein stability index of 0.67 ± 0.079. QIYHIANPKILN came in with a protein stability index of 0.696 ± 0.055. In the case of QKDLDGSLANST it was 0.692 ± 0.025; in that of QKHAAFLKRSRE, 0.68 ± 0.024; in that of QKIIEDNQNTGR, 0.663 ± 0.016. In the case of QKKKKNNKRQKQ it was 0.588 ± 0.023.
